# Test results taken from patent US20140348747A1 (PROMEGA, published 2014).
# T1: NLpoly 11S (12-A51T)
# T1 construct: E. coli clarified lysate; also called 12S-51
# T1 chain: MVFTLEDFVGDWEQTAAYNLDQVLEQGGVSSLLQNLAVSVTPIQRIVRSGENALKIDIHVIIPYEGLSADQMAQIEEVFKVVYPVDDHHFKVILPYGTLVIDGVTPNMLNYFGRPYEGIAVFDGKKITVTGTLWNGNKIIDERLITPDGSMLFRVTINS
# Legend:
# NLpoly 11S (12-A51T) [1] = biological target: T1, NLpoly 11S (12-A51T); experiment: luminescence complementation titration; one site-specific binding fit
# NLpoly 11S (12-A51T) [2] = biological target: T1, NLpoly 11S (12-A51T); experiment: luminescence complementation titration of synthetic NLpep on NLpoly E. coli lysate; one site-specific binding fit
Binder,fold improved affinity over NLpolyWT:NLpepWT (NLpoly 11S (12-A51T) [1]),Kd (NLpoly 11S (12-A51T) [2])
Ac-VSGWRLFKKIS-NH2 (synthetic peptide) [NLpep86],10000 fold,< 1 nM
Ac-VSGWRLFKKISN-NH2 (synthetic peptide) [NLpep80],10000 fold,< 1 nM
